Results taken from IntAct's records for PubMed 24165923.

Molecular target: rspo1_human RSPO1 (UniProt Q2MKA7)
Sequence (Q2MKA7 whole entry): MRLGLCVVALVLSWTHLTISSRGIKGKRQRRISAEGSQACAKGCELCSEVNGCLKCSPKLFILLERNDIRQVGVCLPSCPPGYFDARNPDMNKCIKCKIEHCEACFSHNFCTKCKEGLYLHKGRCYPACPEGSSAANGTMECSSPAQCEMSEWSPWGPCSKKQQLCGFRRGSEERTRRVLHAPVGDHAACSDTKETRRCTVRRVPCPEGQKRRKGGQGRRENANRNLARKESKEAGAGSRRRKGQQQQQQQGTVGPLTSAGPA

effect of a mutation on the interaction: disrupting interaction
Substance: E3 ubiquitin-protein ligase ZNRF3 (Homo sapiens), Q9ULT6 P103A
